What is called Kd is the free concentration of one partner at which half of the binding sites on the other are occupied at equilibrium, for simple one-to-one binding. A high value points to weaker binding.

The values that follow come from patent publication US20190071499A1 (published 2019).

Holding throughout (assay): SPR
One test deals with T1, human IFN-α4 (human, UniProt P05014 24-189).
T1 chain: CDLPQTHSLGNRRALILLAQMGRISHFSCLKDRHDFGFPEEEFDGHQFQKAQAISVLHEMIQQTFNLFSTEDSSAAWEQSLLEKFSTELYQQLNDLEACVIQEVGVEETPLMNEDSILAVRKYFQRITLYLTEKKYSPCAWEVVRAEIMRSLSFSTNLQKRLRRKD

A further test addresses human IFN-ω (human, UniProt P05000 24-195).
Another test has as its target T2, human IFN-α14 (human, UniProt P01570 24-189).
T2 chain: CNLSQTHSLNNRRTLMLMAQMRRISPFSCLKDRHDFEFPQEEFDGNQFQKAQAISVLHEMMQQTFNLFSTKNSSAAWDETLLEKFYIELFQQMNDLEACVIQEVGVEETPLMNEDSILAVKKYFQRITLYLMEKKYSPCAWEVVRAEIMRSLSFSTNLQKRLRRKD

Sequence of human IFN-ω (P05000 24-195): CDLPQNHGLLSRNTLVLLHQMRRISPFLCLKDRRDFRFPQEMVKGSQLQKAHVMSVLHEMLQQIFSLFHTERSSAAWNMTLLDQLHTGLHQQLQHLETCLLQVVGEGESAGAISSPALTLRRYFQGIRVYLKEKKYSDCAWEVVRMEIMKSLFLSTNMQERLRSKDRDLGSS

B1: 26B9 (antibody, V domains shown)
VH: QILLQESGPGLVKPTETLSLTCSVSGDSISDSSHYWAWIRQPPGKGPEWIGSVYFSSMTHYNPSLKSRVSISVDKPKNQFSLKVTSVTVADTATYYCARQALARVGAMNWFDPWGQGSLVTVSS
VL: DIIMTQSPDSLPVSLGEGVTINCKSSQSVFFTSSNKSCLAWYQQKPGKSPKLLIYWASTRQSGVPDRFRGSGSGTDFSLTITSLQAEDVAVYFCQQCQTSPPTFGGGTRLEIKR
Turning to B1, the Kd in the test with human IFN-α4 came out at 0.0375 pM; with human IFN-ω, 0.125 pM; with human IFN-α14, 0.0328 pM.
